Assay in all cases: flow cytometry, CHO-S cells expressing the target
(In general: A flow cytometer gives signals particle by particle.)

The target of test [1] is dog SIGLEC15 on CHO-S-dSIGLEC15 cells (dog).
Test [2] has as its target mouse SIGLEC15 on CHO-S-mSIGLEC15 cells (mouse).
Test [3] deals with human SIGLEC15 on CHO-S-hSIGLEC15 cells (human) (UniProt Q6ZMC9).
Test [4] addresses Macaca fascicularis (crab-eating macaque) SIGLEC15 on CHO-S-fasSIGLEC15 cells (Macaca fascicularis (crab-eating macaque)).

The text below walks through data of patent US20250361296A1.

human SIGLEC15 on CHO-S-hSIGLEC15 cells (human), sequence (Q6ZMC9 20-328 limits assumed): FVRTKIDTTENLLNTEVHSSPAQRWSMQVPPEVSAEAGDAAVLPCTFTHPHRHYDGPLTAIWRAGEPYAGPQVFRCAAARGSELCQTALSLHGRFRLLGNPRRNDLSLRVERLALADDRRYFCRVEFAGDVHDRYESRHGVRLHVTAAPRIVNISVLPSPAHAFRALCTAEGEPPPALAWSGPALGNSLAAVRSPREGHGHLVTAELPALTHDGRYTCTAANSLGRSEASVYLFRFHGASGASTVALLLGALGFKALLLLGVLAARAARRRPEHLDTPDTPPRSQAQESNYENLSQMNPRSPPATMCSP
dog SIGLEC15 on CHO-S-dSIGLEC15 cells (dog), sequence (chain, as listed by the source limits assumed): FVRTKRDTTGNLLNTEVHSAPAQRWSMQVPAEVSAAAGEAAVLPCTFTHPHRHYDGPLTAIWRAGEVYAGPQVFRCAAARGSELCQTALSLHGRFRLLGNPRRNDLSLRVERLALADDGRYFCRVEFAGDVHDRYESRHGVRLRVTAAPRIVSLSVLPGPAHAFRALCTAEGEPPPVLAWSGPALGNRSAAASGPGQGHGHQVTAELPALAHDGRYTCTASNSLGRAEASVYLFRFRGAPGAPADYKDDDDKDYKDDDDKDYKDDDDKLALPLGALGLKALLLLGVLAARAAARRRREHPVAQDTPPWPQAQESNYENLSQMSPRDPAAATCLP
mouse SIGLEC15 on CHO-S-mSIGLEC15 cells (mouse), sequence (chain, as listed by the source limits assumed): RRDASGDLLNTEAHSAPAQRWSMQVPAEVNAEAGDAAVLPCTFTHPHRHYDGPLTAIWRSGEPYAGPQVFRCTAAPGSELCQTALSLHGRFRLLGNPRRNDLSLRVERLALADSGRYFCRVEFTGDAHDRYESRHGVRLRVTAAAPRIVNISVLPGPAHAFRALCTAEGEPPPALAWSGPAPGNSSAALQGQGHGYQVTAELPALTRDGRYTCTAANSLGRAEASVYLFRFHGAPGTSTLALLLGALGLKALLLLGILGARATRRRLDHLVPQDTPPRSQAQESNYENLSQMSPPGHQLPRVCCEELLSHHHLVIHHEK

In the case of NC + secondary antibody, the Percentage of Positive Cells was 0.7% in test [1], 0.3% in test [2], 0% in test [3] and 0% in test [4].
On to NC, for which the Percentage of Positive Cells in test [1] stood at 0.6%; in test [2], 0.1%; in test [3], 0.1%; in test [4] it was 0.2%.
